Measurements as given in patent publication US20230312755A1 (ANGITIA, published 2023).
Numbering of substitutions follows the chain as printed. Each block holds one binder with its values, some of them ahead of it. Ends that are not written are not given here.

Legend:
[1] = biological target: T1, cynomolgus monkey Sclerostin (cynomolgus monkey, UniProt Q9BG78 24-213 (Chlorocebus aethiops entry)); test: BLI (Gator), antibody on anti-hFc biosensor, Sclerostin as analyte, 1:1 global fit
T1 chain: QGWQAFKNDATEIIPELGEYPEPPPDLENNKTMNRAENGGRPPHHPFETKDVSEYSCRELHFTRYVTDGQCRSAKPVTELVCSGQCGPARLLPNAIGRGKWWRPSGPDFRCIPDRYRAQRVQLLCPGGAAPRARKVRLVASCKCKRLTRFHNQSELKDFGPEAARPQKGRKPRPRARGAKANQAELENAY
Description: (§1) The binding affinity of humanized anti-Sclerostin antibodies to human and cynomolgus monkey Sclerostin were determined with bio-layer interferometry using a Gator instrument (Probe Life). Antibodies were immobilized on an anti-hFc biosensor, using a […]. Serial dilutions of human Sclerostin and cynomolgus monkey Sclerostin from 4 μg/ml by two folds in kinetics buffer (PBS, pH 7.4, 0.05% Tween-20, 0.2% BSA, 10 μM biotin) were used as the analytes. Affinity (KD) and kinetic parameters (Kₒₙ and Koff) were calculated from a global fit (1:1) of the data using the Gator software.

human Sclerostin [2] = biological target: T2, human Sclerostin (human, UniProt Q9BQB4 24-213); test: as above
T2 construct: Analyte of the BLI assays and the protein added in the reporter assays; also called hSclerostin; SOST
T2 sequence: T1 chain with D26E, Q70P, A129E, P161T, G178S
Description: as §1

pep5 = biological target: T3, pep5 (human, also: biotinylated (NHS-biotin), site not given here); test: BLI (Gator), biotinylated peptide on streptavidin biosensor, 93B1B7 5 µg/ml as analyte
T3 construct: Chemically synthesized peptide of the second loop of human Sclerostin, biotinylated and immobilized on a streptavidin biosensor
T3 peptide: PNAIGRGKWWR
Description: (§2) The peptides were biotinylated (NHS-Biotin Reagents, Thermo, #21343) and immobilized on Streptavidin biosensor, using a 0.5 μg/ml solution.

Pep1 = biological target: T4, Pep1 (human, biotinylated (NHS-Biotin Reagents)); test: as above
T4 construct: Chemically synthesized peptide of the second loop of human Sclerostin, biotinylated and immobilized on a streptavidin biosensor; also called hScl 110-133
T4 peptide: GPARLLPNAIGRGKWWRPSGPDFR
Description: as §2

pep6 = biological target: T5, pep6 (human, also: biotinylated (NHS-biotin), site not given here); test: as above
T5 construct: Chemically synthesized peptide of the second loop of human Sclerostin, biotinylated and immobilized on a streptavidin biosensor
T5 peptide: IGRGKWWRPSGP
Description: as §2

Pep2 = biological target: T6, Pep2 (biotinylated (NHS-biotin), site not given); test: BLI (Gator), biotinylated peptide on streptavidin biosensor, 93B1B7 as analyte
T6 construct: also called Pep2 mSOST
T6 peptide: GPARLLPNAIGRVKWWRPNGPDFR
Description: as §2

Pep4 = biological target: T7, Pep4 (also: biotinylated (NHS-biotin), site not given here); test: as above
T7 construct: also called Pep4 hSOST
T7 peptide: RLLPNAIGRGK
Description: as §2

Pep7 = biological target: T8, Pep7 (also: biotinylated (NHS-biotin), site not given here); test: as above
T8 construct: also called Pep7 hSOST
T8 peptide: KWWRPSGPDFR
Description: as §2

Pep9 = biological target: T9, Pep9 (also: biotinylated (NHS-biotin), site not given here); test: as above
T9 construct: also called Pep9 mSOST
T9 peptide: IGRVKWWRPNGP
Description: as §2

Pep8 = biological target: T10, Pep8 (also: biotinylated (NHS-biotin), site not given here); test: as above
T10 construct: also called Pep8 mSOST
T10 peptide: PNAIGRVKWWR
Description: as §2

Pep10 = biological target: T11, Pep10 (also: biotinylated (NHS-biotin), site not given here); test: as above
T11 construct: also called Pep 10 mSOST
T11 peptide: KWWRPNGPDFR
Description: as §2

Pep3 = biological target: T12, Pep3 (also: biotinylated (NHS-biotin), site not given here); test: as above
T12 construct: also called Pep3 h/mSOST
T12 peptide: GPARLLPNAIGR
Description: as §2

human Sclerostin [3] = biological target: T2, human Sclerostin; test: cell-based or functional assay
[4] = biological target: T13, His-tagged human Sclerostin (NCBI reference No. NP_079513.1) (human, UniProt Q9BQB4 24-213); test: ELISA, plate coated with His-tagged human Sclerostin
T13 construct: also called mouse His-tagged human Sclerostin; not shown: His tag
T13 sequence: T1 chain with D26E, Q70P, A129E, P161T, G178S
Description: The ability of antibodies to specifically bind Sclerostin was determined by an ELISA capture assay. Plates were coated, in a 96-well half-area, with 100 μl/well of mouse His-tagged human Sclerostin (NCBI reference No. is NP_079513.1) [[…]], in coating buffer (PBS, pH 7.4), and incubated at RT for one hour, or 4° C. overnight. The plates were washed once with 100 μl/well of washing solution (PBS containing 0.2% Tween20, BIO-RAD). Plates were then incubated in blocking solution (PBS containing 1% BSA, 1% goat serum and 0.5% Tween20; 100 μl/well) for one hour at room temperature (RT). Anti-Sclerostin antibodies at various concentrations (1000, 333.3, 111.1, 37.0, 12.3, 4.1, 1.4, 0.5, 0.15, 0.05 ng/ml), a positive control antibody Romosozumab or non-Sclerostin related IgG (human or rat IgG, negative control), were then added to each well in 20 μl/well of blocking solution, and plates were incubated at RT for one hour. NeutrAvidin HRP (Pierce, Catalog #31001) diluted in blocking solution (1:50,000 dilution) was added at to each well ([…]), and the plates were incubated at RT for one hour prior to three washes with […] of washing solution. SuperSignal ELISA Femto (ThermoFisher Scientific, Catalog #37074) working solution was added to the plates ([…]), and the signal was read using a luminometer at 425 nm.

human Sclerostin [5] = biological target: T2, human Sclerostin; test: BLI (Gator), antibody on anti-hFc biosensor, antigen as analyte; koff at LOD, KD estimated
Description: (§3) Binding kinetics and affinities of anti-Sclerostin×anti-DKK1 and anti-Sclerostin×anti-RANKL bispecific antibodies were measured with Gator (Probe Life) bio-layer interferometry (BLI). Antibodies were immobilized on an anti-hFc biosensor, using a 5 μg/ml solution. Serial dilutions of sclerostin (from 1 μg/ml), DKK1 (from 2 μg/ml), or RANKL (from 4 μg/ml) by two folds in kinetics buffer (PBS, pH 7.4, 0.05% Tween-20, 0.2% BSA) were used as the analytes. Affinity (KD) and kinetic parameters (Kₒₙ and Koff) were calculated from a global fit (1:1) of the data using the Gator software.

human RANKL [6] = biological target: T14, human RANKL (human, UniProt O14788 140-317, limits assumed); test: as above
T14 construct: Analyte in BLI; also called hRANKL; TNFSF11
T14 sequence (looked up): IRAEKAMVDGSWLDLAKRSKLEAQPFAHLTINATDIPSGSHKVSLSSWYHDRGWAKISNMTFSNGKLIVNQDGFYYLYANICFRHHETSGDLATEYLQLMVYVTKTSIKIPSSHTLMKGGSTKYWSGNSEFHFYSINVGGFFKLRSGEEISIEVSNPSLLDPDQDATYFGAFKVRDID
Description: as §3

human Sclerostin [7] = biological target: T2, human Sclerostin; test: BLI (Gator), antibody on anti-hFc biosensor, antigen as analyte, 1:1 global fit
Description: as §3

human RANKL [8] = biological target: T14, human RANKL; test: as above
Description: as §3

Kd [1]: 0.018 nM
koff [1]: 6.5e-05 s⁻¹
kon [1]: 2.2e+06 M⁻¹ s⁻¹
Kd (human Sclerostin [2]): 0.051 nM
koff (human Sclerostin [2]): 8.4e-05 s⁻¹
kon (human Sclerostin [2]): 1e+06 M⁻¹ s⁻¹
binding result (pep5): binds
binding result (Pep1): binds
binding result (pep6): binds
binding result (Pep2): no binding (tested: 5 µg/ml)
binding result (Pep4): no binding (tested: 5 µg/ml)
binding result (Pep7): no binding (tested: 5 µg/ml)
binding result (Pep9): no binding (tested: 5 µg/ml)
binding result (Pep8): no binding (tested: 5 µg/ml)
binding result (Pep10): no binding (tested: 5 µg/ml)
binding result (Pep3): no binding (tested: 5 µg/ml)
EC50, Sclerostin-neutralisation activity in HEK293/TCF/LEF/Wnt1 cells (luciferase reporter) (human Sclerostin [3]): 57.9 nM
EC50 [4]: 0.04 nM
B1: 93B1B7 (antibody, V domains shown)
VH: QAQLQQSGAELVRPGASVTLSCKASGYTFTDYEIHWMKQTPVHGLEWIGAIDPETGGTAYNQKFKGKAILTADRSSSTAYLELRSLTSEDSAVYYCYSYDYVTYWGQGTLVTVSA
VL: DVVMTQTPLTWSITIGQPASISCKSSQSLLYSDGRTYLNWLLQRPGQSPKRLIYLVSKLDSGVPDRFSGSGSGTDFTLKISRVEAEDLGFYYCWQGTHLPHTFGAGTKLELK
notes: Murine monoclonal antibody from a hybridoma; also called mAb 93B1B7; Antibody 93B1B7

Kd (human Sclerostin [5]): ~0.01 nM
Kd (human RANKL [6]): ~0.01 nM
kon (human Sclerostin [7]): 757000 M⁻¹ s⁻¹
kon (human RANKL [8]): 86700 M⁻¹ s⁻¹
B2: BAP0069 (bispecific antibody, human IgG4 S228P, kappa, F234A L235A)
heavy: EVQLVQSGAEVKKPGASVKVSCKASGYTFTDYEIHWVRQAPGKGLEWMGAIDPETGGTAYNQKFKGRVTMTTDTSTSTAYMELRSLRSDDTAVYYCYSYDYVTYWGQGTTVTVSSASTKGPSVFPLAPCSRSTSESTAALGCLVKDYFPEPVTVSWNSGALTSGVHTFPAVLQSSGLYSLSSVVTVPSSSLGTKTYTCNVDHKPSNTKVDKRVESKYGPPCPPCPAPEAAGGPSVFLFPPKPKDTLMISRTPEVTCVVVDVSQEDPEVQFNWYVDGVEVHNAKTKPREEQFNSTYRVVSVLTVLHQDWLNGKEYKCKVSNKGLPSSIEKTISKAKGQPREPQVYTLPPSQEEMTKNQVSLTCLVKGFYPSDIAVEWESNGQPENNYKTTPPVLDSDGSFFLYSKLTVDKSRWQEGNVFSCSVMHEALHNHYTQKSLSLSPGKGGGGSGGGGSGGGGSEIVLTQSPGTLSLSPGERATLSCRASQSVRGRYLAWYQQKPGQAPRLLIYGASSRATGIPDRFSGSGSGTDFTLTISRLEPEDFAVFYCQQYGSSPRTFGCGTKVEIKGGGGSGGGGSGGGGSGGGGSEVQLLESGGGLVQPGGSLRLSCAASGFTFSSYAMSWVRQAPGKCLEWVSGITGSGGSTYYADSVKGRFTISRDNSKNTLYLQMNSLRAEDTAVYYCAKDPGTTVIMSWFDPWGQGTLVTVSA
light: DVVMTQSPLSLSVSPGERASLSCKSSQSLLYSDGRTYLNWYLQKPGQSPQRLIYLVSKLDSGVPDRFSGSGSGTDFTLKISRVQSEDVGVYYCWQGTHLPHTFGGGTKVEIKRTVAAPSVFIFPPSDEQLKSGTASVVCLLNNFYPREAKVQWKVDNALQSGNSQESVTEQDSKDSTYSLSSTLTLSKADYEKHKVYACEVTHQGLSSPVTKSFNRGEC
notes: Anti-RANKL scFv (VL-VH, Denosumab) fused to the C-terminus of the heavy chains of the anti-Sclerostin full length antibody (hAb-1)
